Reference: US20220112288A1
Each block holds one substance with its values, some of them ahead of it.

Key:
[1] = biological target: human CD4 on cells (SKW3 cells; human PBMCs) (human) (UniProt P01730); experiment: SKW3 FACS binning, OKT4a on SKW3 cells, anti-hu A647 secondary, without competing supernatant (background 5000)
[2] = biological target: human CD4 on cells (SKW3 cells; human PBMCs) (human) (UniProt P01730); experiment: SKW3 FACS binning, RPA-T4-PE-Dazzle 594 on SKW3 cells without competing supernatant (background 783)
[3] = biological target: human CD4 on cells (SKW3 cells; human PBMCs) (human) (UniProt P01730); experiment: SKW3 FACS binning, OKT4-A488 on SKW3 cells without competing supernatant (background 2163)

Max Binding [1]: 35000
Substance: Human anti-human CD4 (OKT4a) (antibody)

Max Binding [2]: 15000
Substance: Mouse anti-human CD4 (RPA-T4), PE-Dazzle 594 conjugated (antibody)

Max Binding [3]: 8200
Substance: Mouse anti-human CD4 (OKT4), Alexa Fluor 488 conjugated (antibody)
